# Measured values taken from US12241094B2, “Phenazine degrading agents and related compositions, methods and systems for interfering with viability of bacteria” (priority 2016, dated 2025).
# “Also recorded” adds a separate entry of the source. Read-outs that look alike come from different tables or passages of the source.
# B1: PodA30-162: truncated pyocyanin demethylase encoded by MFORT_14352 of Mycobacterium fortuitum lacking N-terminal helix, SEQ ID NO: 2 (protein, listed as Mycobacterium fortuitum)
# chain: MDGRGGRSTTEPVTMTLDVKNDQVAKHDFGKPGMDVGDMDIFSDILSVDGKQVGYDGGACFFTNVTPDNPMTYCELTIHLDAGEIFARSLTPHTLAPFTMAITGGTGEYANSKGELTVSGVATPDEKYELKLTKAENLYFQ
# Legend:
# [1] = PYO demethylation by purified PodA30-162 and mutants (spectrophotometric/HPLC); assay type: biochemical
# Experimental: Enzyme activity and analysis. PYO demethylation by PodA30-162 was first determined by HPLC analysis as described previously (6, 9). To detect formaldehyde evolution, 150 nM protein was mixed with 50 μM PYO in 1 mL of 20 mM Tris pH 7.6 amended with 200 μL Nash reagent (2 M ammonium acetate, 50 mM acetic acid, 20 mM acetylacetone) and incubated at 55° C. until the reaction proceeded to completion (37, 38). The products were determined by HPLC using the same method as used for phenazine quantification. To monitor the formation of reduced phenazine, protein and 50 μM PYO were placed into an anaerobic chamber (Coy Laboratory Products) under an atmosphere of H2/N2 (5:95) and left overnight before allowing the reaction to proceed. To generate reduced PYO and 1-OH-PHZ, 50 μM were mixed with 1 mM sodium dithionite. The formation of reduced phenazine products was assayed visually under UV illumination (39). A BioTek Synergy 4 microplate reader (BioTek) plate reader in the anaerobic chamber was used to measure the emission spectrum of products with excitation at 250 nm. To determine the activity of PodA30-162 in the presence of glycerol, salts, or varying pH, 30 nM protein was suspended in 500 μL buffer, 40 μM PYO was mixed with 2× solution containing the buffer of interest (500 μL), and solutions were preheated to 30 C. For pH range measurements, the following buffers were used (40 mM, adjusted with KOH): acetic acid, pH 4.9; MES, pH 5.4 and 5.7; HEPES, pH 6.1; Tris, pH 6.9 and 7.5; Bicine, pH 7.8, 8.3 and 8.7; CHES, pH 9.4. To measure reaction rates, cuvettes containing the 2×PYO solution were placed in a Evolution 260Bio UV-Vis spectrophotometer (Thermo Scientific) and 500 μL of 30 nM protein was added at time 0 (15 nM protein and 20 μM PYO, final concentration). Reaction progress was monitored by measuring absorbance at 313 nm (40) every 0.5 seconds for 5 minutes. To measure kinetic parameters (kcat, Km) 15 nM protein was used in a reaction buffer of Bicine, pH 7.8; reactions were monitored as before with measurements every 0.2 seconds. The rate from the first 10 seconds of the reaction was used for the determination of kinetic parameters. Kinetic parameters were calculated in Microsoft Excel using the Solver plug-in and fitting data to ideal Michaelis-Menton plots with non-linear regression of experimental data (41). For measurements of the rate of methoxy-PMS demethylation, 300 nM protein was used and methoxy-PMS loss from the reaction mixture was monitored at 500 nm wavelength. Methoxy-PMS was purchased from TCI America. For assays with mutant proteins, 60 nM protein was used. The stimulatory effects of flavin or 2-oxoglutarate addition was determined by adding 25 μM flavin or 2-oxoglutarate to 20 μM PYO and 15 nM PodA30-162 and monitoring the reaction. Experiments testing alternative substrates were carried out using 1 mL reaction volumes containing 20 mM Tris (pH 7.6) and 50 μg mL^−1 PodA30-162. Alternative substrates tested were 10-methylphenothiazine (AlfaAesar), phenazine methosulfate (AlfaAesar), methoxyphenazine methosulfate (TCI America), and 4-keto-N-ethylphenazine. 4-keto-N-ethylphenazine was synthesized from phenazine ethosulfate (Sigma-Aldrich) by incubating under fluorescent light overnight followed by purification by HPLC as described (6, 42). As phenazine methosulfate is light sensitive and spontaneously converts to PYO in the presence of light, all reactions were carried out in the dark, and activity was assessed by end point analysis by HPLC after 4 hours (9).
# [2] = Storage stability of purified PodA30-162; assay type: physicochemical; conditions: 20 mM Tris, pH7.6, 4° C.; as long as tested
# Experimental: Protein extraction and purification. Frozen cell pellets were thawed at room temperature and suspended in 25 mL wash buffer (200 mM KCl, 20 mM imidazole, Tris, pH 7.6). Cell suspensions were homogenized in an Emulsiflex device (Avestin). Cell debris was removed by centrifugation (Avanti J-25 centrifuge, J-series JA-25.50 rotor, Beckman-Coulter) at 50,000×g and supernatant was applied to a nickel GE Healthcare HisTrap HP 5 mL nickel column on a GE Healthcare ÄKTAxpress FPLC. All protein purification steps were carried out at room temperature. The column with bound protein was washed with wash buffer until the UV (280 nm) trace stabilized below 20 mAU. Proteins were eluted across a gradient of 20-500 mM imidazole applied over 10 column volumes. PYO demethylase activity generally eluted around 300 mM imidazole. Eluted protein was concentrated to ˜3 mL (Amicon Ultra-15 centrifugal filters, Ultracel 3K MWCO) and treated overnight with 1% wt/wt TEV protease (35) while dialyzing (Spectra/Por Biotech Dialysis membrane, MWCO: 3.5-5 kD) into buffer containing 200 mM KCl and 20 mM Tris, pH7.6 at 4 C. […] Protein quantification was carried out by Bradford assay (36) (Quick Start 1× Bradford Dye Reagent, Bio-Rad) using pre-diluted Bovine Serum Albumin standards (Thermo Scientific) to establish a standard curve. […]
molecule,measurement,setting,value
B1,activity in presence of glycerol or KCl or NaCl salts,"[1]; 20 μM PYO, 15 nM PodA30-162",minimally inhibited
same,pH regime over which enzyme operates,"[1]; 20 μM PYO, 15 nM PodA30-162",4.9-8.7 pH
same,pH above which activity is lost,"[1]; 20 μM PYO, 15 nM PodA30-162, 5 minutes",> 9 pH
same,"activity in presence of flavins (FMN, FAD) or 2-oxoglutarate","[1]; 25 μM, 15 nM PodA30-162",not stimulated
same,activity under anoxic conditions,"[1]; 50 μM PYO, anaerobic chamber",functions under anoxic conditions; also recorded: active
same,salt concentrations over which enzyme operates,[1]; KCl or NaCl,0 to 400 mM
same,kcat,"[1]; PYO substrate, 15 nM protein, Bicine pH 7.8",1.20 ± 0.07 s⁻¹
same,Km,"[1]; PYO substrate, 15 nM protein, Bicine pH 7.8, read-out: Km",< 1 µM
same,Km,"[1]; best fit to Michaelis-Menton plot, 15 nM PodA30-162, PYO detection limit 0.5 μM, read-out: apparent Km",< 1 µM
same,time stable with no apparent loss of activity,[2],≥ 4 months
